Measurements: patent publication US20200362031A1 (BIO TECHNE, published 2020)

Assays:
VISTA(1-195)-COMP-His [1] = molecular target: VISTA(1-195)-COMP-His (human); test: SPR (Biacore T200); VISTA-COMP against monomeric VISTA, VSIG3-Fc analyte
Description: (§1) VISTA or VISTA-COMP (each prepared as described in Example 4) was covalently immobilized to the surface of a CM5 chip (GE Healthcare, US) using an anti-poly His antibody. Dilutions of VSIG3 Fc-fusion were then flowed over the surface at concentration ranging between 0.2 nM and 20 μM and the double reference subtracted data fit to a 1:1 Langmuir binding model with Biacore T200 Evaluation Software version 3.1
This increase is largely due to an […].

VISTA(1-195)-COMP-His [2] = molecular target: VISTA(1-195)-COMP-His (human); test: SPR (Biacore T200); VISTA-COMP captured by anti-poly His antibody on CM5 chip, VSIG3-Fc analyte, 1:1 Langmuir fit
Description: as §1

monomeric VISTA [3] = molecular target: monomeric VISTA (human); test: SPR (Biacore): monomeric VISTA captured by anti-poly-His antibody on a CM5 chip, VSIG3-Fc analyte 0.247 to 20 µM, 1:1 fit
Chain of monomeric VISTA (human) (Q9H7M9 33-194): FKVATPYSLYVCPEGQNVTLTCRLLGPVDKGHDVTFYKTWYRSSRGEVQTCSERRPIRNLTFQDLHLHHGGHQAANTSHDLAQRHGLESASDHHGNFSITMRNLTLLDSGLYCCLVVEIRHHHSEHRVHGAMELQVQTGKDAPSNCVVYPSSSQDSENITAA
Description: (§2) FIG. 9A-FIG. 9D show schematics and quantification of the kinetics and affinity of the VISTA-VSIG3 interaction by surface plasmon resonance (Biacore) using monomeric VISTA and multimeric VISTA-COMP. FIG. 9A and FIG. 9C show schematics of the Biacore experiment, where VISTA (FIG. 9A) or VISTA-COMP (FIG. 9C) is captured on the surface of a CM5 chip (GE Healthcare) using an anti-poly His antibody. The analyte, VSIG3-Fc, is flowed over the captured VISTA at concentration ranging between 0.2 nM and 20 μM. FIG. 9B and FIG. 9D show resulting sensorgrams and kinetic fits using a 1:1 model for the monomeric VISTA-VSIG3-Fc interaction (FIG. 9B) and the multimeric VISTA-COMP-VSIG3-Fc interaction (FIG. 9D). For captured monomeric VISTA, the VSIG3-Fc analyte was tested in the range of 0.247 μM to 20 μM. For captured multimeric VISTA-COMP, the VSIG3-Fc analyte was tested in the range of 0.2 nM to 500 nM.
as §1

monomeric VISTA [4] = molecular target: monomeric VISTA (human); test: SPR (Biacore T200); monomeric VISTA captured by anti-poly His antibody on CM5 chip, VSIG3-Fc analyte, 1:1 Langmuir fit
Description: as §1

VISTA(1-195)-COMP-His [5] = molecular target: VISTA(1-195)-COMP-His (human); test: SPR (Biacore): VISTA-COMP captured by anti-poly-His antibody on a CM5 chip, VSIG3-Fc analyte 0.2 to 500 nM, 1:1 fit
Description: as §2, §1

[6] = molecular target: T1, Recombinant human VISTA Fc Chimera (human); test: functional ELISA; rhVISTA coated 2 µg/mL, biotinylated rhVSIG3, streptavidin-HRP
T1 construct: also called rhVISTA; VISTA/IgG Fc fusion protein
Description: Recombinant human VSIG3 Fc Chimera (“rhVSIG3”—encoded by SEQ ID NO:3; see Table 1) specifically binds to a recombinant human VISTA Fc Chimera (“rhVISTA”—encoded by SEQ ID NO:6; see Table 1) on a functional ELISA binding assay. rhVISTA was coated on the wells of a ELISA microtiter plate at 2 μg/ml in a 100 μL volume. Following blocking of the wells with 1% BSA, varying amounts of rhVSIG3 labeled with biotin was added. Biotin label associated with the plate due to the rhVSIG3-rhVISTA interaction was detected with streptavidin-HRP. […] The non-specific binding is subtracted and in all cases was less than 5% of the total signal.

[7] = molecular target: T1, Recombinant human VISTA Fc Chimera; test: AVEXIS screen

Chain of VISTA(1-195)-COMP-His (human) (chain, as listed by the source): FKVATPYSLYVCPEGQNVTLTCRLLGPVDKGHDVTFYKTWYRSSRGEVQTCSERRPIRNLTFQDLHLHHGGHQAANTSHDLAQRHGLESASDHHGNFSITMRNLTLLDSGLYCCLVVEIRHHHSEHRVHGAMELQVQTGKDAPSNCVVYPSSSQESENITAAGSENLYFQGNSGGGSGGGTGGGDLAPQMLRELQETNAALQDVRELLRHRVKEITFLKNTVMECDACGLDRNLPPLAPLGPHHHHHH

B1: Recombinant human VSIG3 Fc Chimera (Fc fusion)
chain: LEVSESPGSIQVARGQTAVLPCTFTTSAALINLNVIWMVTPLSNANQPEQVILYQGGQMFDGAPRFHGRVGFTGTMPATNVSIFINNTQLSDTGTYQCLVNNLPDIGGRNIGVTGLTVLVPPSAPHCQIQGSQDIGSDVILLCSSEEGIPRPTYLWEKLDNTLKLPPTATQDQVQGTVTIRNISALSSGLYQCVASNAIGTSTCLLDLQVISPQPRNIGLIAGIEGRMDPKSCDKTHTCPPCPAPEAEGAPSVFLFPPKPKDTLMISRTPEVTCVVVDVSHEDPEVKFNWYVDGVEVHNAKTKPREEQYNSTYRVVSVLTVLHQDWLNGKEYKCKVSNKALPAPIEKTISKAKGQPREPQVYTLPPSRDELTKNQVSLTCLVKGFYPSDIAVEWESNGQPENNYKATPPVLDSDGSFFLYSKLTVDKSRWQQGNVFSCSVMHEALHNHYTQKSLSLSPGK
notes: also called rhVSIG3; rhVSIG-3
**Q.** With B1 as the binder, how does the “fold higher affinity than with monomeric VISTA” value (VISTA(1-195)-COMP-His [1]) read?
**A.** ~150 fold

**Q.** What about the Kd (VISTA(1-195)-COMP-His [2]) of the same binder?
**A.** ~0.017 µM

**Q.** And the Kd (monomeric VISTA [3])?
**A.** 2.52 µM

**Q.** What about the Kd (monomeric VISTA [4]) of the same binder?
**A.** ~2.5 µM

**Q.** And the Kd (VISTA(1-195)-COMP-His [5])?
**A.** 0.017 µM

**Q.** And the EC50 [6]?
**A.** ~0.25 µg/mL

B2: VSIG3(1-245)-COMP-AlkPhos-Flag/His (other)
chain: LEVSESPGSIQVARGQPAVLPCTFTTSAALINLNVIWMVTPLSNANQPEQVILYQGGQMFDGAPRFHGRVGFTGTMPATNVSIFINNTQLSDTGTYQCLVNNLPDIGGRNIGVTGLTVLVPPSAPHCQIQGSQDIGSDVILLCSSEEGIPRPTYLWEKLDNTLKLPPTATQDQVQGTVTIRNISALSSGLYQCVASNAIGTSTCLLDLQVISPQPRNIGLIAGSENLYFQGNSGGGSGGGTGGGDLAPQMLRELQETNAALQDVRELLRHRVKEITFLKNTVMECDACGLDRNLPPLAPLGPIIPVEEENPDFWNREAAEALGAAKKLQPAQTAAKNLIIFLGDGMGVSTVTAARILKGQKKDKLGPEIPLAMDRFPYVALSKTYNVDKHVPDSGATATAYLCGVKGNFQTIGLSAAARFNQCNTTRGNEVISVMNRAKKAGKSVGVVTTTRVQHASPAGTYAHTVNRNWYSDADVPASARQEGCQDIATQLISNMDIDVILGGGRKYMFRMGTPDPEYPDDYSQGGTRLDGKNLVQEWLAKRQGARYVWNRTELMQASLDPSVTHLMGLFEPGDMKYEIHRDSTLDPSLMEMTEAALRLLSRNPRGFFLFVEGGRIDHGHHESRAYRALTETIMFDDAIERAGQLTSEEDTLSLVTADHSHVFSFGGYPLRGSSIFGLAPGKARDRKAYTVLLYGNGPGYVLKDGARPDVTESESGSPEYRQQSAVPLDEETHAGEDVAVFARGPQAHLVHGVQEQTFIAHVMAFAACLEPYTACDLAPPAGTTDDYKDDDDKHHHHHH
notes: also called penta-VSIG3
**Q.** Does B2 bind [7]?
**A.** no binding
